Where two headings read alike, the source gives them in different places.
Columns and labels:
[1] = biological target: Recombinant MEK1 (immobilised in SPR) (human) (UniProt Q02750); assay: SPR
[2] = biological target: Recombinant MEK1 (immobilised in SPR) (human) (UniProt Q02750); assay: SPR; remark: listed apart in the source

Question: “HIS-CCS (copper chaperone for superoxide dismutase) (from UniProt O14618 1-274) (natural protein)” was tested. Which Kd [1] did it give?
Answer: 2.09 µM

Question: And the Kd [2]?
Answer: 8 µM
